For the assay, the target named is extra-domain B (ED-B) of fibronectin, as present in arteriosclerotic plaque of aorta specimens of WHHL rabbits (rabbit (WHHL rabbit aorta tissue)) (UniProt Q28749). Put plainly: in vitro perfusion (Ussing chamber) of WHHL rabbit aorta specimens with radiolabeled scFv, 20 min at room temperature, gamma counting.

Data on one substance can be found in patent US20050112690A1.

Sequence of UniProt Q28749 (Q28749 1221-1309 limits assumed): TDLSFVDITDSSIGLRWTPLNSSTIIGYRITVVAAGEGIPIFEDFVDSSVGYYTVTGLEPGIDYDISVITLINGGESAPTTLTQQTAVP

“125I-labeled L19 derivative ZK212667 (L19) (scFv)” displayed a rating factor (bound amount on arteriosclerotic vs non-arteriosclerotic aorta sections) of 2.8.
